Consider one molecule from paper PMC7468457.

Test [1] addresses AT1R-Rluc (AngII type 1 receptor fused to Renilla luciferase) (human) (UniProt P30556).
Test [2] shares this target. The source holds these as a separate data set.
The target is the same in test [3]. The source holds these as a separate data set.
Test [4] has the same target. The source holds these as a separate data set.
Test [5] shares this target. This is another data set of the same source.
Test [6] shares this target. This is another data set of the same source.

UniProt P30556, sequence (P30556 whole entry, the tested form may be a part): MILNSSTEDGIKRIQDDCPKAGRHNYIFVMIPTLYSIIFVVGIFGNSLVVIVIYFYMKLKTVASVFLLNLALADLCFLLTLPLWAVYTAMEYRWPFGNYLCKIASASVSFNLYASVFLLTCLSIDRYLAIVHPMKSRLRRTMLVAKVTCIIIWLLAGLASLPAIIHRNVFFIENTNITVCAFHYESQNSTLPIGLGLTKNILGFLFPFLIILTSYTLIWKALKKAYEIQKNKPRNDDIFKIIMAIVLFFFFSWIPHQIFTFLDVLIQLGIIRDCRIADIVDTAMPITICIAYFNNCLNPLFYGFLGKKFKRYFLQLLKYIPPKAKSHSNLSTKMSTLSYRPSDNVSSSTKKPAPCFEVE

B1: PAR1 (untagged protease-activated receptor 1) (receptor)
chain: SFLLRNPNDKYEPFWEDEEKNESGLTEYRLVSINKSSPLQKQLPAFISEDASGYLTSSWLTLFVPSVYTGVFVVSLPLNIMAIVVFILKMKVKKPAVVYMLHLATADVLFVSVLPFKISYYFSGSDWQFGSELCRFVTAAFYCNMYASILLMTVISIDRFLAVVYPMQSLSWRTLGRASFTCLAIWALAIAGVVPLLLKEQTIQVPGLNITTCHDVLNETLLEGYYAYYFSAFSAVFFFVPLIISTVCYVSIIRCLSSSAVANRSKKSRALFLSAAVFCIFIICFGPTNVLLIAHYSFLSHTSTTEAAYFAYLLCVCVSSISCCIDPLIYYYASSECQRYVYSILCCKESSDPSSYNSSGQLMASKMDTCSSNLNNSIYKKLLT
In test [1], B1 showed a BRET increase between AT1R-Rluc and Venus-Gαq by thrombin 1 U/ml with PAR1 overexpression, dose-response to AngII (Figure 1D) (% of AngII response) of 70 to 75; a BRET increase between AT1R-Rluc and yPET-β-arrestin 2 by thrombin 1 U/ml with PAR1 overexpression (Figure 1F) (% of AngII response) of 25. For the same molecule, in test [2], the Emax of thrombin dose-response, BRET between AT1R-Rluc and Venus-Gαq, PAR1 overexpressed, thrombin alone; 10 nM AngII alone taken as 100% was found to be 211%; the Emax of thrombin dose-response, BRET between AT1R-Rluc and Venus-Gαq, PAR1 overexpressed, with 10 nM AngII came out at 342%; the Emax of thrombin dose-response, BRET between AT1R-Rluc and yPET-β-arrestin 2, PAR1 overexpressed, thrombin alone; 10 nM AngII alone taken as 100% is 102%; the Emax of thrombin dose-response, BRET between AT1R-Rluc and yPET-β-arrestin 2, PAR1 overexpressed, with 10 nM AngII is 299%. For the same molecule, in test [3], the real-time BRET between AT1R-Rluc and Venus-Gαq, PAR1 overexpressed, AngII 10 nM and thrombin 1 U/ml together (% of AngII response) worked out at 207; the real-time BRET between AT1R-Rluc and Venus-Gαq, PAR1 overexpressed, thrombin 1 U/ml alone (% of AngII response) came to 79; the real-time BRET between AT1R-Rluc and yPET-β-arrestin 2, PAR1 overexpressed, AngII 10 nM and thrombin 1 U/ml together (% of AngII response) was 218; the real-time BRET between AT1R-Rluc and yPET-β-arrestin 2, PAR1 overexpressed, thrombin 1 U/ml alone (% of AngII response) is 44. The sequential real-time BRET between AT1R-Rluc and yPET-β-arrestin 2, PAR1 overexpressed, vehicle then thrombin 1 U/ml (% of AngII response) in test [4] is 50. In test [5], this molecule came in with an IP1 production in HEK293 cells coexpressing AT1R-Rluc and PAR1, AngII 10 nM and thrombin 1 U/ml together of 160%. Also, in test [6], the AT1R endosomal trafficking (BRET between AT1R-Rluc and Venus-Rab5), PAR1 overexpressed and co-activated is 45%; the AT1R endosomal trafficking (BRET between AT1R-Rluc and Venus-Rab7), PAR1 overexpressed and co-activated came out at 41%.
